Reference: patent US20180291083A1 (IMMATICS BIOTECHNOLOGIES, published 2018)

Molecular target: T1, HLA-B*44:02 (human)
T1 construct: Peptide-receptive MHC class I monomer made by UV cleavage of a UV-sensitive ligand
Experiment: UV ligand exchange ELISA; exchange yield grade
Excerpt: Candidate peptides for T cell based therapies according to the present invention were further tested for their MHC binding capacity (affinity). The individual peptide-MHC complexes were produced by UV-ligand exchange, where a UV-sensitive peptide is cleaved upon UV-irradiation, and exchanged with the peptide of interest as analyzed. Only peptide candidates that can effectively bind and stabilize the peptide-receptive MHC molecules prevent dissociation of the MHC complexes. To determine the yield of the exchange reaction, an ELISA was performed based on the detection of the light chain (β2m) of stabilized MHC complexes. The assay was performed as generally described in Rodenko et al. (Rodenko et al., 2006).
96 well MAXISorp plates (NUNC) were coated over night with 2 ug/ml streptavidin in PBS at room temperature, washed 4× and blocked for 1 h at 37° C. in 2% BSA containing blocking buffer. Refolded HLA-A*02:01/MLA-001 monomers served as standards, covering the range of 15-500 ng/ml. Peptide-MHC monomers of the UV-exchange reaction were diluted 100-fold in blocking buffer. Samples were incubated for 1 h at 37° C., washed four times, incubated with 2 ug/ml HRP conjugated anti-β2m for 1 h at 37° C., washed again and detected with TMB solution that is stopped with […]. Absorption was measured at 450 nm. Candidate peptides that show a high exchange yield (preferably higher than 50%, most preferred higher than 75%) are generally preferred for a generation and production of antibodies or fragments thereof, and/or T cell receptors or fragments thereof, as they show sufficient avidity to the MHC molecules and prevent dissociation of the MHC complexes.

peptide exchange yield [%] | Binder
50 to 75 | EEGDTLLHLF
20 to 50 | EYDLKWEF
50 to 75 | QEIQSLLTNW
20 to 50 | REYNEYENI
50 to 75 | FEVESLFQKY
50 to 75 | REYEYDLKWEF
10 to 20 | TEYPVFVY
50 to 75 | RENQVLGSGW
> 75 | GEGAYGKVF
50 to 75 | SEKETVAYF
50 to 75 | GELGGSVTI
20 to 50 | EVDASIFKAW
50 to 75 | KEIGAAVQAL
50 to 75 | GELLGRQSF
20 to 50 | EEEHGKGREY
> 75 | AEYKGRVTL
20 to 50 | GELPAVRDL
20 to 50 | EEETILHFF
10 to 20 | TDKSFPNAY
20 to 50 | KEYDFGTQL
50 to 75 | SEYADTHYF
20 to 50 | SESLPKEAF
20 to 50 | KEFEQVPGHL
20 to 50 | GENEDNRIGL
50 to 75 | SESKTVVTY
20 to 50 | SEDLAVHLY
50 to 75 | NEIKVYITF

peptide exchange yield [%] | Binder
20 to 50 | EENKPGIVY
20 to 50 | EEVTDRSQL
50 to 75 | AEHNFVAKA
50 to 75 | NEFPVIVRL
50 to 75 | SENEQRRMF
20 to 50 | KELPGVKKY
20 to 50 | DEAQARAAF
50 to 75 | SESTFDRTF
10 to 20 | NEVLASKY
20 to 50 | KEVPRSYEL
50 to 75 | AEPLVGQRW
50 to 75 | EENPGKFLF
20 to 50 | TEIFKEHNF
20 to 50 | SEYSHLTRV
20 to 50 | EENGEVKEL
20 to 50 | VELDLQRSV
50 to 75 | VEDGLFHEF
20 to 50 | EEFETIERF
20 to 50 | SQAPAARAF
50 to 75 | TEGKRYFTW
20 to 50 | HEIDGKALFL
50 to 75 | YEYDLKWEF
20 to 50 | AELLAKELY
> 75 | EEWMGLLEY
50 to 75 | AEPGPVITW
20 to 50 | GENDRLNHTY
50 to 75 | VEIAEAIQL
